Measured values as given in US20230056252A1 (Gilead, published 2023).

target: T1, biotinylated CD3 epsilon:delta heterodimer protein (Amsbio AMS.CDD-H52WO) (Homo sapiens (Human), UniProt P07766 23-126; P04234 22-105); test: BLI (Octet), CD3 on SA sensor, Fab analyte;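 also: biolayer interferometry with biotinylated CD3 epsilon:delta captured on streptavidin sensors, Fab analyte at several concentrations up to 300 nM, 100 s association then 300 s dissociation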
T1 construct: also called CD3 heterodimer
Protocol: The CD3 binding kinetics of the purified huSP34 Fabs were determined using OctetRed384 (Pall ForteBio, CA) biolayer interferometry (BLI). […] Streptavidin (SA) coated biosensors tips (Pall ForteBio, CA) were used to capture biotinylated CD3 epsilon: delta heterodimer and typical immobilization levels captured on the SA sensors were 1 nm which approximately translates to 300 ng/ml of captured protein. For kinetic measurements biosensors were first pre-wetted with assay buffer for 10 minutes to remove protective sucrose coating followed by the recommended regeneration conditions for standardization of the biosensor surface for the experiment. In order to load the biosensors with antigen, 300 ng/ml of biotinylated CD3 epsilon: delta heterodimer protein (Amsbio AMS.CDD-H52WO) was immobilized on the SA sensor for 900 seconds. The CD3 loaded biosensors were then blocked with 20 ug/ml biocytin (sigma) for 200 seconds and then dipped into assay buffer containing wells for 200 seconds to remove any non-specific protein or unbound CD3 heterodimer.
CD3 loaded and biocytin blocked biosensors were then transferred into fresh assay buffer for 200 seconds to collect a baseline read. Kinetic measurements for anti-CD3 Fab and bispecific antibody binding were performed by dipping the CD3-coated biosensors into wells containing multiple concentrations of Fab or Ab (0-300 nM) for 100 seconds followed by a 300 second dissociation time by transferring the biosensors into assay buffer containing wells. The CD3 loaded sensors were then regenerated for the next kinetic measurement. Biosensors were generated by removing bound Fabs or Ab from immobilized CD3 on SA biosensors. Regeneration conditions used consisted of 3 cycles of 5 seconds of dipping the biosensors in Regeneration Buffer (10 mM Glycine HCl pH 1.5) followed by Assay Buffer (10 mM sodium phosphate pH 7.4, 140 mM Sodium Chloride, 0.005% Tween20 with 0.2% BSA).

Row | Binder | Kd [nM] | koff [s⁻¹] | kon [M⁻¹ s⁻¹] | binding result
1 | huSP34.7.2 Fab-HF (Fab, V domains shown, also called HC7+LC2) VH: EVQLVESGGGLVQPGGSLRLSCAASGFTFSDYAMNWVRQAPGKGLEWVGRTRSKYNNYATYYAASVKGRFTISRDDSKNSLYLQMNSLKTEDTAVYYCVRHGNFGNSYVSWFAVWGQGTLVTVSS VL: QAVVTQEPSLTVSPGGTVTLTCGSSTGAVTTSNYANWVQQKPGQAPRGLIGGTSNRAPWTPARFSGSLLGGKAALTLSGAQPEDEAEYYCALWYSNLWVFGGGTKLTVL | 498 | 0.155 | 318000 | 
2 | huSP34.7.6 Fab-HF (Fab, V domains shown, also called HC7+LC6) VH: EVQLVESGGGLVQPGGSLRLSCAASGFTFSDYAMNWVRQAPGKGLEWVGRTRSKYNNYATYYAASVKGRFTISRDDSKNSLYLQMNSLKTEDTAVYYCVRHGNFGNSYVSWFAVWGQGTLVTVSS VL: QAVVTQPPSLTVSPGGTVTLTCGSSTGAVTTGHYANWVQQKPGQAPRGLIGGTSNRAPGVPARFSGSLSGGKAALTISGAQPEDEAEYYCALWYSARWVFGGGTKLTVL | 425 | 0.17 | 403000 | 
3 | huSP34.6.6 Fab-HF (Fab, V domains shown, also called HC6+LC6) VH: EVQLVESGGGLVQPGGSLRLSCAASGFTFSTYAMNWVRQAPGKGLEWVGRIRSKYNNYATYYADSVKGRFTISRDNSKNTLYLQMNSLRAEDTAMYYCVRHGNFGNSYVSWFAVWGQGTLVTVSS VL: QAVVTQPPSLTVSPGGTVTLTCGSSTGAVTTGHYANWVQQKPGQAPRGLIGGTSNRAPGVPARFSGSLSGGKAALTISGAQPEDEAEYYCALWYSARWVFGGGTKLTVL | 75 | 0.0292 | 464000 | 
4 | huSP34.5.6 Fab-HF (Fab, V domains shown, also called HC5+LC6) VH: EVQLVESGGGLVQPGGSLRLSCAASGFTFSTYAMNWVRQAPGKGLEWVGRIRSKYNNYATYYADSVKGRFTISRDNSKNTLYLQMNSLRAEDTAVYYCVRHGNFGHSYVSWFAVWGQGTLVTVSS VL: QAVVTQPPSLTVSPGGTVTLTCGSSTGAVTTGHYANWVQQKPGQAPRGLIGGTSNRAPGVPARFSGSLSGGKAALTISGAQPEDEAEYYCALWYSARWVFGGGTKLTVL | 268 | 0.0746 | 280000 | 
5 | huSP34.8.6 Fab-HF (Fab, V domains shown, also called HC8+LC6) VH: EVQLVESGGGLVQPGGSLRLSCAASGFTFSDYAMNWVRQAPGKGLEWVGRTRSKYNNYATYYAASVKGRFTISRDDSKNSLYLQMNSLKTEDTAVYYCVRHGNFGHSYVSWFAVWGQGTLVTVSS VL: QAVVTQPPSLTVSPGGTVTLTCGSSTGAVTTGHYANWVQQKPGQAPRGLIGGTSNRAPGVPARFSGSLSGGKAALTISGAQPEDEAEYYCALWYSARWVFGGGTKLTVL | 375 | 0.138 | 367000 | 
6 | huSP34.10.4 Fab-HF (Fab, V domains shown, also called HC10+LC4) VH: EVQLVESGGGLVQPGGSLRLSCAASGFTFSDYAMNWVRQAPGKGLEWVGRTRSKYNSYATYYAASVKGRFTISRDDSKNSLYLQMNSLKTEDTAVYYCVRHGNFGHSYVSWFAVWGQGTLVTVSS VL: QAVVTQEPSLTVSPGGTVTLTCGSSTGAVTTSHYANWVQQKPGQAPRGLIGGTSKRAPWTPARFSGSLLGGKAALTLSGAQPEDEAEYYCALWYSALWVFGGGTKLTVL |  |  |  | no binding (tested: 0-300 nM)
7 | huSP34.9.2 Fab-HF (Fab, V domains shown, also called HC9+LC2) VH: EVQLVESGGGLVQPGGSLRLSCAASGFTFSDYAMNWVRQAPGKGLEWVGRTRSKYNSYATYYAASVKGRFTISRDDSKNSLYLQMNSLKTEDTAVYYCVRHGNFGNSYVSWFAVWGQGTLVTVSS VL: QAVVTQEPSLTVSPGGTVTLTCGSSTGAVTTSNYANWVQQKPGQAPRGLIGGTSNRAPWTPARFSGSLLGGKAALTLSGAQPEDEAEYYCALWYSNLWVFGGGTKLTVL | 761 | 0.145 | 192000 | 
8 | huSP34.9.4 Fab-HF (Fab, V domains shown, also called HC9+LC4) VH: EVQLVESGGGLVQPGGSLRLSCAASGFTFSDYAMNWVRQAPGKGLEWVGRTRSKYNSYATYYAASVKGRFTISRDDSKNSLYLQMNSLKTEDTAVYYCVRHGNFGNSYVSWFAVWGQGTLVTVSS VL: QAVVTQEPSLTVSPGGTVTLTCGSSTGAVTTSHYANWVQQKPGQAPRGLIGGTSKRAPWTPARFSGSLLGGKAALTLSGAQPEDEAEYYCALWYSALWVFGGGTKLTVL | 6120 | 0.25 | 40900 | 
9 | huSP34.9.1 Fab-HF (Fab, V domains shown, also called HC9+LC1) VH: EVQLVESGGGLVQPGGSLRLSCAASGFTFSDYAMNWVRQAPGKGLEWVGRTRSKYNSYATYYAASVKGRFTISRDDSKNSLYLQMNSLKTEDTAVYYCVRHGNFGNSYVSWFAVWGQGTLVTVSS VL: QAVVTQEPSLTVSPGGTVTLTCRSSTGAVTTSNYANWVQQKPGQAPRGLIGGTNKRAPWTPARFSGSLIGDKAALTLSGAQPEDEAEYYCALWYSNLWVFGGGTKLTVL | 417 | 0.0779 | 187000 | 
10 | huSP34.8.1 Fab-HF (Fab, V domains shown, also called HC8+LC1) VH: EVQLVESGGGLVQPGGSLRLSCAASGFTFSDYAMNWVRQAPGKGLEWVGRTRSKYNNYATYYAASVKGRFTISRDDSKNSLYLQMNSLKTEDTAVYYCVRHGNFGHSYVSWFAVWGQGTLVTVSS VL: QAVVTQEPSLTVSPGGTVTLTCRSSTGAVTTSNYANWVQQKPGQAPRGLIGGTNKRAPWTPARFSGSLIGDKAALTLSGAQPEDEAEYYCALWYSNLWVFGGGTKLTVL | 443 | 0.0823 | 186000 | 
11 | huSP34.10.1 Fab-HF (Fab, V domains shown, also called HC10+LC1) VH: EVQLVESGGGLVQPGGSLRLSCAASGFTFSDYAMNWVRQAPGKGLEWVGRTRSKYNSYATYYAASVKGRFTISRDDSKNSLYLQMNSLKTEDTAVYYCVRHGNFGHSYVSWFAVWGQGTLVTVSS VL: QAVVTQEPSLTVSPGGTVTLTCRSSTGAVTTSNYANWVQQKPGQAPRGLIGGTNKRAPWTPARFSGSLIGDKAALTLSGAQPEDEAEYYCALWYSNLWVFGGGTKLTVL |  |  |  | no binding (tested: 0-300 nM)
12 | huSP34.7.4 Fab-HF (Fab, V domains shown, also called HC7+LC4) VH: EVQLVESGGGLVQPGGSLRLSCAASGFTFSDYAMNWVRQAPGKGLEWVGRTRSKYNNYATYYAASVKGRFTISRDDSKNSLYLQMNSLKTEDTAVYYCVRHGNFGNSYVSWFAVWGQGTLVTVSS VL: QAVVTQEPSLTVSPGGTVTLTCGSSTGAVTTSHYANWVQQKPGQAPRGLIGGTSKRAPWTPARFSGSLLGGKAALTLSGAQPEDEAEYYCALWYSALWVFGGGTKLTVL | 4180 | 0.424 | 265000 | 
13 | huSP34.9.5 Fab-HF (Fab, V domains shown, also called HC9+LC5) VH: EVQLVESGGGLVQPGGSLRLSCAASGFTFSDYAMNWVRQAPGKGLEWVGRTRSKYNSYATYYAASVKGRFTISRDDSKNSLYLQMNSLKTEDTAVYYCVRHGNFGNSYVSWFAVWGQGTLVTVSS VL: QAVVTQEPSLTVSPGGTVTLTCGSSTGAVTTGHYANWVQQKPGQAPRGLIGGTSNRAPWTPARFSGSLLGGKAALTLSGAQPEDEAEYYCALWYSARWVFGGGTKLTVL |  |  |  | no binding (tested: 0-300 nM)
14 | huSP34.8.2 Fab-HF (Fab, V domains shown, also called HC8+LC2) VH: EVQLVESGGGLVQPGGSLRLSCAASGFTFSDYAMNWVRQAPGKGLEWVGRTRSKYNNYATYYAASVKGRFTISRDDSKNSLYLQMNSLKTEDTAVYYCVRHGNFGHSYVSWFAVWGQGTLVTVSS VL: QAVVTQEPSLTVSPGGTVTLTCGSSTGAVTTSNYANWVQQKPGQAPRGLIGGTSNRAPWTPARFSGSLLGGKAALTLSGAQPEDEAEYYCALWYSNLWVFGGGTKLTVL | 3440 | 0.0982 | 172000 | 
15 | huSP34.10.5 Fab-HF (Fab, V domains shown, also called HC10+LC5) VH: EVQLVESGGGLVQPGGSLRLSCAASGFTFSDYAMNWVRQAPGKGLEWVGRTRSKYNSYATYYAASVKGRFTISRDDSKNSLYLQMNSLKTEDTAVYYCVRHGNFGHSYVSWFAVWGQGTLVTVSS VL: QAVVTQEPSLTVSPGGTVTLTCGSSTGAVTTGHYANWVQQKPGQAPRGLIGGTSNRAPWTPARFSGSLLGGKAALTLSGAQPEDEAEYYCALWYSARWVFGGGTKLTVL | 222 | 0.0827 |  | 
16 | huSP34.8.4 Fab-HF (Fab, V domains shown, also called HC8+LC4) VH: EVQLVESGGGLVQPGGSLRLSCAASGFTFSDYAMNWVRQAPGKGLEWVGRTRSKYNNYATYYAASVKGRFTISRDDSKNSLYLQMNSLKTEDTAVYYCVRHGNFGHSYVSWFAVWGQGTLVTVSS VL: QAVVTQEPSLTVSPGGTVTLTCGSSTGAVTTSHYANWVQQKPGQAPRGLIGGTSKRAPWTPARFSGSLLGGKAALTLSGAQPEDEAEYYCALWYSALWVFGGGTKLTVL | 305 | 0.163 | 561000 | 
17 | huSP34.7.5 Fab-HF (Fab, V domains shown, also called HC7+LC5) VH: EVQLVESGGGLVQPGGSLRLSCAASGFTFSDYAMNWVRQAPGKGLEWVGRTRSKYNNYATYYAASVKGRFTISRDDSKNSLYLQMNSLKTEDTAVYYCVRHGNFGNSYVSWFAVWGQGTLVTVSS VL: QAVVTQEPSLTVSPGGTVTLTCGSSTGAVTTGHYANWVQQKPGQAPRGLIGGTSNRAPWTPARFSGSLLGGKAALTLSGAQPEDEAEYYCALWYSARWVFGGGTKLTVL | 1460 | 0.848 | 307000 | 
18 | huSP34.10.2 Fab-HF (Fab, V domains shown, also called HC10+LC2) VH: EVQLVESGGGLVQPGGSLRLSCAASGFTFSDYAMNWVRQAPGKGLEWVGRTRSKYNSYATYYAASVKGRFTISRDDSKNSLYLQMNSLKTEDTAVYYCVRHGNFGHSYVSWFAVWGQGTLVTVSS VL: QAVVTQEPSLTVSPGGTVTLTCGSSTGAVTTSNYANWVQQKPGQAPRGLIGGTSNRAPWTPARFSGSLLGGKAALTLSGAQPEDEAEYYCALWYSNLWVFGGGTKLTVL | 307 | 0.0664 | 225000 | 
19 | huSP34.8.5 Fab-HF (Fab, V domains shown, also called HC8+LC5) VH: EVQLVESGGGLVQPGGSLRLSCAASGFTFSDYAMNWVRQAPGKGLEWVGRTRSKYNNYATYYAASVKGRFTISRDDSKNSLYLQMNSLKTEDTAVYYCVRHGNFGHSYVSWFAVWGQGTLVTVSS VL: QAVVTQEPSLTVSPGGTVTLTCGSSTGAVTTGHYANWVQQKPGQAPRGLIGGTSNRAPWTPARFSGSLLGGKAALTLSGAQPEDEAEYYCALWYSARWVFGGGTKLTVL | 234 | 0.219 | 958000 | 
